Results from US20260232830A1 (JIANGSU HENGRUI PHARMACEUTICALS, published 2026).
Numbering of substitutions follows the chain as printed.

B1: ChiF4-1 (antibody, human IgG1, kappa, V domains shown)
VH: QIQLQQSGPELVKPGASVKISCKASGYTFTDNYINWVKQRPGQGLEYIGWIYPGSGNNKFNEKFKGKATLTVDTSSRTAFMQLSSLTFEDSAVYFCARDYPFPSYHYGMDYWGQGTSVTVSS
VL: QILLTQSPAIMSASPGERVTITCSASSSVSYIHWFQQKPGTSPKLWIYSTSNLASGVPPRFSGSGSGTSFSLTVSRMEAEDAATYYCQQRSSYPPTFGGGTKLEIKR
notes: murine variable regions on human IgG1 constant regions; also called chimeric antibody of F4-1
B2: ChiM6 (antibody, human IgG1, kappa, V domains shown)
VH: QVQLQQSGAELMKPGASVKLSCKATGYRFIPYWIEWIKERPGHGLEWIGEILPGTGRTNYNEKFKGKATFTADTSSNTAYMQLSSLTTEDSAIYYCARYGDDTSGGYYAVDYWGQGTSVTVSS
VL: DIVMTQSSASLAMSLGQRATISCRASESVNILGTNLIHWYQQKPGQPPKLLIYHASNLETGVPARFSGSGSRTDFTLTIDPVEEDDVAIYYCLQSRKIPWTFGGGTKLEIKR
notes: murine variable regions on human IgG1 constant regions; also called chimeric antibody of M6
B3: ChiM4 (antibody, human IgG1, kappa, V domains shown)
VH: QVQLQQSGAELARPGASVKLSCKASGYSFTTYGVPWVKQRTGQGLEWIGDIYPRSGNTYYNEKFKGKATLTADKSSDTVFMELRSLSSEDSAVYFCAREDYDNYPYALDYWGQGTSVTVSS
VL: EIVLTQSPAIIAASPGEKVTITCSASSSVFNMNWYQQKPGSSPKIWIYDISKLASGVPGRFSGSGSGTSFSLTINSMEAEDVGTYYCQQRSFYPPTFGGGTKVEIKR
notes: murine variable regions on human IgG1 constant regions; also called chimeric antibody of M4
B4: ChiF4-18 (antibody, human IgG1, kappa, V domains shown)
VH: EVQLQQSGAELVRPGSSVKMSCKTSGYTFTSYGINWVKQRPGQGLEWIGYIYLGSDYTEYNEKFKGKATLTSDTTSSTAYMQLSSLTSEDSAIYFCARSAGSLFAYWGQGTLVTVSA
VL: DIQLTQSPSSLSASLGERVSLTCRASQDIGITLNWLQQEPDGTIKRLIYATSSLDSGVPKRFSGSRSGSDYSLTISSLESEDFVDYYCLQYASSPYTFGGGTKLEIKR
notes: murine variable regions on human IgG1 constant regions; also called chimeric antibody of F4-18
B5: F4-1 (antibody of hybridoma 3H6) (antibody, V domains shown)
VH: B1 VH
VL: QILLTQSPAIMSASPGERVTITCSASSSVSYIHWFQQKPGTSPKLWIYSTSNLASGVPPRFSGSGSGTSFSLTVSRMEAEDAATYYCQQRSSYPPTFGGGTKLEIK
notes: murine antibody tested as hybridoma supernatant; also called hybridoma supernatant 3H6
B6: M4 (antibody of hybridoma 17F3) (antibody, V domains shown)
VH: B3 VH
VL: EIVLTQSPAIIAASPGEKVTITCSASSSVFNMNWYQQKPGSSPKIWIYDISKLASGVPGRFSGSGSGTSFSLTINSMEAEDVGTYYCQQRSFYPPTFGGGTKVEIK
notes: murine antibody tested as hybridoma supernatant; also called hybridoma supernatant 17F3
B7: ZalH2 (antibody, human IgG1, kappa, V domains shown)
VH: QVQLVESGGGVVQPGRSLRLSCAASGFTFSTYGMHWVRQAPGKGLEWVAVIWEDGSYKYYGDSVKGRFTISRDNSKNTLYLQMNSLRAEDTAVYYCARDGITMVRGVMKDYFDYWGQGTLVTVSS
VL: DIQLTQSPSSLSASVGDRVTITCRASQDISSALVWYQQKPGKAPKLLIYDASSLESGVPSRFSGSESGTDFTLTISSLQPEDFATYYCQQFNSYPLTFGGGTKVEIKR
notes: anti-EGFR zalutumumab variant, human IgG1
B8: ZalH8 (antibody, human IgG1, kappa, V domains shown)
VH: B7 VH with T31S, E53D, I101L
VL: B7 VL
notes: as for B7
B9: ZalH3 (antibody, human IgG1, kappa, V domains shown)
VH: B7 VH with E53D, I101L
VL: B7 VL
notes: as for B7
B10: ZalH14 (antibody, human IgG1, kappa, V domains shown)
VH: B7 VH with E53Y, Y57N, G61A
VL: B7 VL
notes: as for B7
B11: ZalH13 (antibody, human IgG1, kappa, V domains shown)
VH: B7 VH with T31S, G33A, E53D
VL: B7 VL
notes: as for B7
B12: ZalH12 (antibody, human IgG1, kappa, V domains shown)
VH: B7 VH with E53D, Y57N
VL: B7 VL
notes: as for B7
B13: ZalH9 (antibody, human IgG1, kappa, V domains shown)
VH: B7 VH with T31S, E53D, I101V
VL: B7 VL
notes: as for B7
B14: ZalH5 (antibody, human IgG1, kappa, V domains shown)
VH: B7 VH with E53D, I101A
VL: B7 VL
notes: as for B7
B15: ZalH7 (antibody, human IgG1, kappa, V domains shown)
VH: B7 VH with T31S
VL: B7 VL
notes: as for B7
B16: ZalH10 (antibody, human IgG1, kappa, V domains shown)
VH: B7 VH with T31S, E53D, I101A
VL: B7 VL
notes: as for B7
B17: M4H1L1-ZalH′ (bispecific antibody, human IgG1, kappa)
heavy: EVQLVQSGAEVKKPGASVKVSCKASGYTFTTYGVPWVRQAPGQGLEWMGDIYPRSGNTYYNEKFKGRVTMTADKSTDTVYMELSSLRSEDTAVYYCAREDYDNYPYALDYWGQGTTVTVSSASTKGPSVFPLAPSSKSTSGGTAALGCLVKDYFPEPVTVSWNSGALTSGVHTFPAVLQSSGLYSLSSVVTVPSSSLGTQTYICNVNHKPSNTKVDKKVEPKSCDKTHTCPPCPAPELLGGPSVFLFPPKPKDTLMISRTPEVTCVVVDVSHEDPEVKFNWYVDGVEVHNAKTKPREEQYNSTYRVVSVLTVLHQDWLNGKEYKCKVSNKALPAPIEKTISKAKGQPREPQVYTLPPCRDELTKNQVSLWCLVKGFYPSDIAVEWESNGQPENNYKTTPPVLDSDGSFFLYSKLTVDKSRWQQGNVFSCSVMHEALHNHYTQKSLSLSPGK
light: DIQMTQSPSSLSASVGDRVTITCSASSSVFNMNWYQQKPGKSPKLWIYDISKLASGVPSRFSGSGSGTDFTLTISSLQPEDFATYYCQQRSFYPPTFGGGTKVEIKRTVAAPSVFIFPPSDEQLKSGTASVVCLLNNFYPREAKVQWKVDNALQSGNSQESVTEQDSKDSTYSLSSTLTLSKADYEKHKVYACEVTHQGLSSPVTKSFNRGEC
chain 1: not shown
chain 2: DIQLTQSPSSLSASVGDRVTITCRASQDISSALVWYQQKPGKAPKLLIYDASSLESGVPSRFSGSESGTDFTLTISSLQPEDFATYYCQQFNSYPLTFGGGTKVEIKGGGGSSGAPRFLTRPKASVVSVGKDATLSCQIVGNPFPQVSWEKDKQPVTAGVRFRLAQDGDLYRLKILDLQLSDSGQYVCRARNAHGEAFACLGLQVDAEA
notes: 1:1 format: MUC1 Fab arm with Fc knob; EGFR arm VH-linker-Titin-Fc hole paired with VL-linker-Obscurin; also called anti-EGFR-MUC1 bispecific antibody
B18: M4H1L1-ZalH10 (bispecific antibody, human IgG1, kappa)
heavy: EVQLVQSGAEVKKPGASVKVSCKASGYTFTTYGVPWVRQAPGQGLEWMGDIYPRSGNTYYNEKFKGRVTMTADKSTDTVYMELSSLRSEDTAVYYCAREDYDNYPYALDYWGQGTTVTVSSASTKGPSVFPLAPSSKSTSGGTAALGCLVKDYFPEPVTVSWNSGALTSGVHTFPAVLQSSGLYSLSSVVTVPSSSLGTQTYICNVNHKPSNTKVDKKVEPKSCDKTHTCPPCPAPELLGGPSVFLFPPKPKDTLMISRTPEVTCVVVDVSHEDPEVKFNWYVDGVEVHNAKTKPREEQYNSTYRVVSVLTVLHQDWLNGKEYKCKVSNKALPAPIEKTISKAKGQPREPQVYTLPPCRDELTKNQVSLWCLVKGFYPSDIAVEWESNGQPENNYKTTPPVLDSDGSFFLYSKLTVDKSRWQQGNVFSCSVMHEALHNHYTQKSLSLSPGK
light: B17 light
chain 1: not shown
chain 2: B17 chain 2
notes: as for B17
B19: M4H1L1-ZalH8 (bispecific antibody, human IgG1, kappa)
heavy: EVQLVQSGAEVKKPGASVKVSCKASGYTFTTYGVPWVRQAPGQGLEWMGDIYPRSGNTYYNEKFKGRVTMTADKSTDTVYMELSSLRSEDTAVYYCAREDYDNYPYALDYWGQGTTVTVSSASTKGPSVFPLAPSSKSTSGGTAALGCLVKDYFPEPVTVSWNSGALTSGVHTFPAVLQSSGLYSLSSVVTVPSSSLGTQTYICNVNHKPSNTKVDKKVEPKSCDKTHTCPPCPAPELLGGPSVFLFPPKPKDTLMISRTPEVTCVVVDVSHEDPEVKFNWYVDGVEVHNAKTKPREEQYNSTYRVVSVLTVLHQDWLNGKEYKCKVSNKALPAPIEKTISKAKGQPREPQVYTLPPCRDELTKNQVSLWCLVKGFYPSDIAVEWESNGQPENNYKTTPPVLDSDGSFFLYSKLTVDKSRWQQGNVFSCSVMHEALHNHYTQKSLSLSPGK
light: B17 light
chain 1: not shown
chain 2: B17 chain 2
notes: as for B17
B20: M4H1L1-ZalH13 (bispecific antibody, human IgG1, kappa)
heavy: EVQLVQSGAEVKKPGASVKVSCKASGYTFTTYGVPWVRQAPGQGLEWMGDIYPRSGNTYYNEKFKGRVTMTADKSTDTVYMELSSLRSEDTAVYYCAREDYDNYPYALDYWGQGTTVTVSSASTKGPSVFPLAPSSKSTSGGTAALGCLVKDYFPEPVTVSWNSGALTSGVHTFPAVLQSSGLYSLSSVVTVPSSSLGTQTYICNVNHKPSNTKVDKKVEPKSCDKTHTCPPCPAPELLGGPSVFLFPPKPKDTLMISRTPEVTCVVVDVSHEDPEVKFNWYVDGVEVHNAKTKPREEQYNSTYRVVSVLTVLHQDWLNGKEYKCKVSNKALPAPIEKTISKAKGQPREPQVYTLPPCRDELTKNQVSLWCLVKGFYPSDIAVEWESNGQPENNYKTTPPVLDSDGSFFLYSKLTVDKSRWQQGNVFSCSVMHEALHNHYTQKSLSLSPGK
light: B17 light
chain 1: not shown
chain 2: B17 chain 2
notes: as for B17

Molecular target: T1, cyno MUC1-C on stably transfected CHOK1 cells (cyno)
T1 construct: domain: MUC1-C; also called CHOK1-cyno-MUC1-C cells; Monkey MUC1-CT
Assay: FACS, CHOK1-cyno-MUC1-C

Going from B1 to B2, the Emax rises from 41700 to 70900.

Going from B3 to B4, the Emax rises from 79500 to 79800.

Molecular target: T2, MUC1-C-L-6×His (His-tagged human MUC1-C protein extracellular domain) (human, UniProt P15941 961-1152)
T2 construct: template human MUC1 UniProt P15941; expressed in 293 cells; also called hMUC1-C-L-his; MUC1-C-L-His
T2 sequence (P15941 other isoform, or with tags, fused parts or gaps): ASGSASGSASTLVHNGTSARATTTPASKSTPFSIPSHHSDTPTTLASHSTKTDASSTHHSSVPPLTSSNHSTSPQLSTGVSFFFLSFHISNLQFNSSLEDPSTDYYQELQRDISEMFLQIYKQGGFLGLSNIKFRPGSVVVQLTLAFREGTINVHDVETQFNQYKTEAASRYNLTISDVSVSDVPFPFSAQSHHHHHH
Assay: ELISA, coated antigen, hybridoma supernatant

Going from B5 to B6, the OD450 nm falls from 2.33 to 1.9.

Molecular target: T3, human EGFR-His antigen (human, UniProt P00533 25-645)
T3 construct: also called hEGFR-His
Assay: SPR Biacore 8K, antibody on Protein A chip, 1:1 fit

First: B7
Second: B8
The Kd of the first is 5.2-fold lower: 92.9 nM for the first, 483 nM for the second. The first binds more tightly here.

B9 and B10 are within 1.5-fold of each other in Kd: 302 nM for the first, 210 nM for the second.

Going from B11 to B12, the Kd rises from 1.96 nM to 120 nM (61-fold). The first binds more tightly here.

Compared with B13, B14 is 1.9-fold higher in Kd: 51.6 nM for the first, 96.4 nM for the second.

B15 and B16 are within 1.5-fold of each other in Kd: 95.7 nM for the first, 133 nM for the second.

Compared with B7, B8 is 4.5-fold higher in koff: 0.00812 s⁻¹ for the first, 0.0369 s⁻¹ for the second.

B9 and B10 are within 1.5-fold of each other in koff: 0.0243 s⁻¹ for the first, 0.0275 s⁻¹ for the second.

First: B11
Second: B12
The koff of the first is 77-fold lower: 0.000187 s⁻¹ for the first, 0.0144 s⁻¹ for the second.

Compared with B13, B14 is 5.3-fold higher in koff: 0.00234 s⁻¹ for the first, 0.0125 s⁻¹ for the second.

Compared with B15, B16 is 2.3-fold higher in koff: 0.00761 s⁻¹ for the first, 0.0174 s⁻¹ for the second.

B7 and B8 are within 1.5-fold of each other in kon: 87400 M⁻¹ s⁻¹ for the first, 76500 M⁻¹ s⁻¹ for the second.

Compared with B9, B10 is 1.6-fold higher in kon: 80500 M⁻¹ s⁻¹ for the first, 131000 M⁻¹ s⁻¹ for the second.

B11 and B12 are within 1.5-fold of each other in kon: 95500 M⁻¹ s⁻¹ for the first, 120000 M⁻¹ s⁻¹ for the second.

Going from B13 to B14, the kon rises from 45400 M⁻¹ s⁻¹ to 129000 M⁻¹ s⁻¹ (2.8-fold).

First: B15
Second: B16
The kon of the first is 1.6-fold lower: 79500 M⁻¹ s⁻¹ for the first, 131000 M⁻¹ s⁻¹ for the second.

Molecular target: T3, human EGFR-His antigen
Assay: as above
Remark: another data set of the same source

Going from B17 to B18, the Kd rises from 4.13 nM to 56.4 nM (14-fold).

First: B19
Second: B20
The Kd of the first is 990-fold higher: 162 nM for the first, 0.163 nM for the second.

Compared with B17, B18 is 16-fold higher in koff: 0.00072 s⁻¹ for the first, 0.0113 s⁻¹ for the second.

First: B19
Second: B20
The koff of the first is 600-fold higher: 0.0275 s⁻¹ for the first, 4.57e-05 s⁻¹ for the second.

B17 and B18 are within 1.5-fold of each other in kon: 174000 M⁻¹ s⁻¹ for the first, 201000 M⁻¹ s⁻¹ for the second.

Compared with B19, B20 is 1.6-fold higher in kon: 171000 M⁻¹ s⁻¹ for the first, 280000 M⁻¹ s⁻¹ for the second.
